Experimental findings from patent publication US20210292393A1 (published 2021) are described below.

Assay [1] has as its target SARS-CoV-2 full length spike protein, V483A mutant, expressed on CHO cells (SARS-CoV-2, UniProt P0DTC2 14-1273).
Assay [2] concerns the target SARS-CoV-2 full length spike protein, D614G mutant, expressed on CHO cells (SARS-CoV-2, UniProt P0DTC2 14-1273).
Assay [3] concerns the target SARS-CoV-2 full length spike protein, V367F mutant, expressed on CHO cells (SARS-CoV-2, UniProt P0DTC2 14-1273).
Assay [4] has as its target SARS-CoV-2 full length spike protein, D614G mutant (SARS-CoV-2, UniProt P0DTC2 14-1273).

B1: antibody 477 (antibody, V domains shown)
VH: QVQLVESGGGVVQPGRSLRLSCAASGITFSSYAMHWVRQAPGKGLEWVAVISYDGSDKYHADSVKGRFAISRDNSKNTLYLQMNSLRAEDTAVYYCAKDKGIAVAGTGWIRPDPEYYFDYWGQGTLVTVSS
VL: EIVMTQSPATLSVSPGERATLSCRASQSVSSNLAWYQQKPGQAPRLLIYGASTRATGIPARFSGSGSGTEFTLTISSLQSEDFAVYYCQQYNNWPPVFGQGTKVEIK
As to B1, in assay [1], the “median fluorescence intensity, fold over isotype control” value (shortened to “median fluorescence intensity, fold”) was determined as 23.9 fold over isotype.

B2: antibody 391 (antibody, V domains shown)
VH: EVQLVESGGGLVQPGGSLRLSCAASGFTFSSYWMHWVRQAPGKGLVWVSRINSDGSSTSYADSVKGRFTISRDNAKNTLYLQMNSLRAEDTAVYYCALGPLDIVGSYYYYGMDVWGQGTTVTVSS
VL: NFMLTQPHSVSESPGKTVTISCTGSSGSIASNYVQWYQQRPGSAPTTVIYEDNQRPSGVPDRFSGSIDSSSNSASLTISGLKTEDEADYYCQSYDSSNQDVVFGGGTKLTVL
Consider B2, for which the “median fluorescence fold over isotype control” value (shortened to “median fluorescence fold”) turned out to be 35.6 fold over isotype in assay [2] and 18.8 fold over isotype in assay [3].

B3: antibody 474 (antibody, V domains shown)
VH: EVQLVESGGGLVQPGGSLRLSCAASGFTFSSYWMHWVRQAPGKGLVWVSRINSDGSSTSYADSVKGRFTISRDNAKNTLYRQMNSLRAEDTAVYYCALGPLDIVGSYYYYGMDVWGQGTTVTVSS
VL: NFMLTQPHSVSESPGKTVTISCTGSSGSIASNYVQWYQQRPGSAPTTVIYEDNQRPSGVPDRFSGSIDSSSNSASLTISGLKTEDEADYYCQSYDSSNQDVVFGGGTKLTVL
Regarding B3, the “median fluorescence intensity, fold” value in assay [1] came to 1.05 fold over isotype.

B4: antibody 381 (antibody, V domains shown)
VH: QVQLVESGGGVVQPGRSLRLSCAASGFTFSSYAMHWVRQAPGKGLEWVAVISYDGSNKYYADSVKGRFTISRDNSKNTLYLQMNSLRAEDTAVYYCARDRQYYDILTGYYLPTSEYYFDYWGQGTLVTVSS
VL: DIQMTQSPSSVSASVGDRVTITCRASQGISSWLAWYQQKPGKAPKLLIYAASSLQSGVPSRFSGSGSGTDFTLTISSLQPEDFATYYCQQANSFPPTFGGGTKVEIK
As for B4, the entries for the “median fluorescence fold” value in assay [2] and in assay [3] were 67.9 fold over isotype and 43.6 fold over isotype, respectively.

B5: antibody 497 (antibody, V domains shown)
VH: QVQLQESGPGLVKPSQTLSLTCTVSGGSINSFGYYWSWIRQHPGKGLEWIGYIYYSGSTDYNPSLNSRVTISLDTSKNQFLLKLTSVTAADTAVYYCAKLTDYYDSSGYSFDYWGQGTLVTVSS
VL: DIQMTQSPSSVSASVGDRVTITCRASQDISRWLAWYQQKPGKAPKLLIYAASSLQSGVPSRFSGRGSGTELTLTISSLQPEDFATYFCQQAYSFPFTFGGGTKVEIK
Regarding B5, the “median fluorescence intensity, fold” value in assay [1] stood at 22.2 fold over isotype.

B6: antibody 480 (antibody, V domains shown)
VH: QVQLVESGGGVVQPGRSLRLSCAASGFTFSSYAMHWVRQAPGKGLEWVAVISYDGNNKYYADSVKGRFTISRDNSKNTLYLQMNSLRAEDTAVYYCVRTNSGSYYAAFDYWGQGTLVTVSS
VL: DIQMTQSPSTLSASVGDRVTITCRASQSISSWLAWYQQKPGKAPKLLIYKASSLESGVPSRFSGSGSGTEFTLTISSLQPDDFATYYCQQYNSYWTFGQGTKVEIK
On to B6, for which, in assay [1], the “median fluorescence intensity, fold” value worked out at 10.7 fold over isotype.

B7: antibody 258 (antibody, V domains shown)
VH: QVQLQESGPGLVKPSETLSLTCTVSGGSISSYYWSWIRQPAGKGLEWIGRIYTSGSTNYNPSLKSRVTMSVDTSKNQFSLKLSSVTAADTAVYYCAAGYGSIDYWGQGTLVTVSS
VL: not shown
For the molecule B7, the “median fluorescence intensity, fold” value in assay [4] turned out to be 6.88 fold over isotype.

B8: antibody 370 (antibody, V domains shown)
VH: QVQLVESGGGVVPPGRSLSLPCAASGFTFSAYAMHWLRQAPGKGLEWVAVISYDGTVKYVADSVRGRFTISRDNSNNTLYLQMTSLRSDDTAVYYCARDLGALAAAPTVYFVHWGQGTLVTVSS
VL: SYVLTQPPSVSVAPGKTATITCAGEDIGRKSVHWYQQKPGQAPVLVIFYYSDRPSGIPDRFSGSVSGNTATLTIGRVEAGDEADYFCQVWDRTTNHVIFGGGTKVTVL
For B8, the “median fluorescence fold” value was determined as 9.47 fold over isotype in assay [2] and 35.3 fold over isotype in assay [3].

B9: antibody 510 (antibody, V domains shown)
VH: QVQLQESGPGLVKPSQTLSLTCTVSGGSISSGSYYWSWIRQPAGKGLEWIGRIYTSGSTNYNPSLKSRVTISVDTSKNQFSLKLSSVTAADTAVYYCAREGQWLYRFDYWGQGTLVTVSS
VL: QSALTQPASVSGSPGQSITISCTGTSSDVGNYDLVSWYQQHPGKAPKLVIYGVTKRPSGVSNRFSGSKSGNTASLTISGLQAEDEADYYCCSYATGDTSVFGTGTKVTVL
For B9, the “median fluorescence intensity, fold” value in assay [1] turned out to be 1.06 fold over isotype.

B10: antibody 504 (antibody, V domains shown)
VH: QVQLVESGGGVVQPGRSLRLSCAASGFTFSSYGMHWVRQAPGKGLEWVAVISYDGSNKYYADSVKGRFTISRDNSKNTLYLQMNSLRAEDTAVYYCAKGGGGGYCSGGSCYSHYFDYWGQGTLVTVSS
VL: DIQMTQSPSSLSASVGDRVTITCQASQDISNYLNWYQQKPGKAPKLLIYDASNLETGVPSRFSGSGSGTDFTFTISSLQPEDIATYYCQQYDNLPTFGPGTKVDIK
B10: the “median fluorescence intensity, fold” value in assay [1] came to 2.47 fold over isotype.

B11: antibody 394 (antibody, V domains shown)
VH: QVQLVQSGAEVKKPGASVKVSCKASGYTFTGYYMHWVRQAPGQGLEWMGWINPNNGGTNSAQKFQGRVTMTRDTSISTAYMELNRLRSDDTAVYYCARDITTTAGTDYYYGMDVWGQGTTVTVSS
VL: SYELTQPPSVSVSPGQTARITCSGDALPKQYAYWYQQKPGQAPVLVICKDSERPSGIPERFSGSSSGTTVTLTISGVQAEDEADYYCQSADSSGTYIVFGTGTKVTVL
As to B11, the “median fluorescence fold” value in assay [2] is 63.4 fold over isotype; in assay [3] it was 37.8 fold over isotype.

B12: antibody 397 (antibody, V domains shown)
VH: QVQLVESGGGVVQPGRSLRLSCAASGFTFSSYGMHWVRQAPGKGLESVAVISYDGSNKYYADSVKGRFTISRDNSKNTLYLQMNSLRAEDTAVYYCAKEGQWELQGNAFDIWGQGTMVTVSS
VL: SYELTQPPSVSVSPGQTARITCSGDALPKQYAYWYQQKPGQAPVLVIYKDSERPSGIPERFSGSSSGTTVTLTISGVQAEDEADYYCQSGDSSGTYRVFGGGTKLTVL
As to B12, the “median fluorescence fold” value in assay [2] came out at 7.97 fold over isotype; in assay [3], 32.8 fold over isotype.

B13: antibody 476 (antibody, V domains shown)
VH: QVQLVQSGSELKKPGASVKVSCKASGYTFTSYAMNWVRQAPGQGLEWMGWINTNTGNPTYAQGFTGRFVFSLDTSVSTAYLQISSLKAEDTGVYYCARDHELPNSSSWFGHFEYWGQGTLVTVSS
VL: SYELTQPPSVSVSPGQTARITCSGDALPKQYAYWYQQKAGQAPVLVIYKDSERRSGIPERFSGSSSGTTVTLTISGVQAEDEADYYCQSADSSGTSVVFGGGTKLTVL
As for B13, in assay [1], the “median fluorescence intensity, fold” value amounted to 14.1 fold over isotype.

B14: antibody 387 (antibody, V domains shown)
VH: QVQLVESGGGVVQPGRSLRLSCAASGFTFSSYGMHWVRQAPGKGLEWVAVISYDGSNKYYADSVKGRFTISRDNSKNTLYLQMNSLRAEDTAVYYCAKDDTKNYGDLDIDYWGQGTLVTVSS
VL: SYELTQPSSVSVSPGQTARITCSGDVLAKKYARWFQQKPGQAPVLVIYKDSERPSGIPERFSGSSSGTTVTLTISGAQVEDEADYYCYSAADNNLGVFGGGTKLTVL
For B14, the “median fluorescence fold” value was 15.9 fold over isotype in assay [2] and 6.69 fold over isotype in assay [3].

B15: antibody 492 (antibody, V domains shown)
VH: QVQLVESGGGVVQPGRSLRLSCAASGFTFSSYGMHWVRQAPGKGLEWVAVISYDGSNKYYADSVKGRFTISRDNSKNTLYLQMNSLRAEDTAVYYCAKDGILWWWWGYFDYWGQGTLVTVSS
VL: QSVLTQPPSVSGAPGQRVTISCTGSSSNIGAGFDVHWYQQLPGTAPKLLIYGNSNRPSGVPDRFSGSKSGTSASLAITGLQAEDEADYYCQSYDSSLSVVFGGGTKLTVL
Take B15: the “median fluorescence intensity, fold” value in assay [1] was 7.71 fold over isotype.

B16: antibody 496 (antibody, V domains shown)
VH: QVQLVQSGAEVKKPGASVKVSCKASGYTFTDYYIHWVRQAPGQGLEWMGWINPNSGGTNYAQKFQGRLTMTRDTSISTAYMELSRLRSDDTAVYYCARVYSMFREFIINPYYYYYGLDVWGQGTTVTVSS
VL: QSALTQPASVSGSPRQSITISCTGTSSDVGSYNLVSWYQQHPGKAPKLMIYEGSKRPSGVSNRFSGSKSGNTASLAISGLQAEDEANYYCCSYAGSSTLVFGGGTKLTVL
Take B16: in assay [1], the “median fluorescence intensity, fold” value was 12.6 fold over isotype.

B17: antibody 475 (antibody, V domains shown)
VH: QVQLVESGGGVVQPGRSLRLSCAASGFTFSSYAMHWVRQAPGKGLEWVTFISHEGSNKYYADSVKGRFTISRDNSKNTLYLQMNSLRAEDTAVYYCARTFEYSSSSATGDFDYWGQGTLVTVSS
VL: QSVLTQPPSVSGAPGQRVTISCTGSSSNIGAGYDVHWYQQLPGTAPKLLIYGNSNRPSGVPDRFSGSKSGTSASLAITGLQAEDEADYYCQSYDSSLSGVVFGGGTKLTVL
Consider B17, for which the “median fluorescence intensity, fold” value in assay [1] was determined as 20.2 fold over isotype.

B18: antibody 368 (antibody, V domains shown)
V domain 1: QITLKESGPTLVKPTETLTLTCAFSGFSLTKTGEAAGWIRQAPGRALEWVTVIFWDDDKRYSPSLQNRLTVTKDTSKNVVVLTMTNVDPVDTATYFCWAMGGPGKEFFGQGTRVAVSS
V domain 2: QSVLTQPPSVSGAPGQRVTVSCTGTSSSIGPYSDVHWYQHIPGKAPRLLIFGTSNRPSGVPARFSGSKSGSSASLVIAGLQAEDEADYYCQSYDSSLGEIYVFGTGTTVTVL
On to B18, for which the “median fluorescence fold” value was determined as 64.3 fold over isotype in assay [2] and 31.6 fold over isotype in assay [3].

B19: antibody 509 (antibody, V domains shown)
VH: QVQLVESGGGVVQPGRSLRLSCAASGFNLSSYAMHWVRQASGKGLEWVSLISYDGSIKYYTDSVKGRFTVSGDNSKNTLFLQMNSLRADDSALYYCVRGGVSGPNSFDLWGQGTTVTVSS
VL: DVVMTQSPLSLPVTLGQPASISCRSSQSLVYSDGNTYVNWFQQRPGQSPRRLIYKVSIRASGVPDRFSGSGSGTDFALKISRVEAEDVGVYYCMQGTHWPVTFGQGTKVEIK
Regarding B19, the “median fluorescence intensity, fold” value in assay [1] is 11.4 fold over isotype.

B20: antibody 291 (antibody, V domains shown)
VH: QVQLVESGGGVVQPGRSLRLSCAASGFTFSSYAMHWVRQAPGKGLEWVAVISYDGSNKYYADSVKGRFTISRDNSKNTLYLQMNSLRAEDTAVYYCARASGGSYFGGMDVWGQGTTVTVSS
VL: QSALTQPASVSGSPGQSITISCTGTSSDVGGYNYVSWYQQHPGKAPKLMIYEVSNRPSGVSNRFSGSKSGNTASLTISGLQAEDEADYYCSSYTSSSTLYVFGTGTKVTVL
On to B20, for which, in assay [4], the “median fluorescence intensity, fold” value was determined as 8.03 fold over isotype.
